Measurements from the domain aggregation screens of Martell et al. (2025).

Assay: soluble fraction after stress (log2 fold change); higher = more stays soluble; pooled small domains, quantitative proteomics
Conditions: stress: 50 degC
Summary of the method: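 After stress at 50°C, the amount of each protein still soluble was measured. This was done on pooled custom libraries of small protein domains, using high-throughput quantitative proteomics. The figure given is a base-two log fold change and stands for aggregation propensity, with higher values meaning more protein stays in solution.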

Row | Sequence | soluble fraction (log2)
1 | HMEDNLVTYPNPTSDYIYVSKKVDLTVVNMLGDILIQKQNINVLDVTELTPGMYTIVIRYNNVTTNKRIIK | -0.372
2 | HMQNPDHLLALAAAAQAAIELGRPDEAEAYYRHLVEVYGVEMASQKPEYLDHSGITNDLRNVAEGFLVG | -0.746
3 | HMDTIAEFIAELTPLEQKVFHVYYEKGQSLKDTAQQAEITSTSARGALDRIRAKGRHFHLAVILFIG | -0.622
4 | HMSQTELIIVEEEMDGERLDAFLAEQVEQLSRSAVKNLINEGQVLVNGAKQKASYHVREGDEISIEIPEPQ | 0.0254
5 | HMVNHVGITVSNLERSIQFYEALTGKKIANQDTIGGKRMAQTQGLADTLIKYANLHLDNLNIDLLEYVE | -0.386
6 | HMFDEVKDAARRLAALLDQAGGTLTLNDKSAPEEVAALTGMSKKVFKRALGHLMSRSEVVVADGRITKKD | -0.289
7 | HMGHKTLTVELQEKIENLPQTLDKYNLTLGNNKMSVDYTYSVKEKQTGITNLLQDLKEHKFDIVYLVGQDN | 0.251
8 | HMILALAISSEEDDARIYATYADRLREAYPASARVFEGMVDEEHEHRRRLIDLFQRRFGDTIPLVRREHV | -0.61
9 | HMKPATSITFIPSERPDLVEQLSKITFDKKDSLYENYINLNWLTFEAISVYMREGDIIGFST | 0.0284
10 | HMYQRLPFSFANRYKMVLESQHPERAPILYYVEPLKSAAIIEVSRVVKNGFTPQAITLDEFDKKLTDAYQR | -0.908
11 | HMFDDEELDRFAGVPADAYLPADEDEFREVFYTMRPGEVVEWVRSLELRHIEIPNGIKDEIFMMIR | -3.35
12 | HMGLSASVIQMFADLGYTSEGRSTKEMITDYQIDHSIIKNSTEDGAGTYGPRTKASLSTVHAQYI | -0.103
13 | HMTNYYTVTFKEGDTVLKEVSVHSGDGVPYAVAPKRDDIVGWSYNGNTYTTDLNTLKIKKEVTFTAVT | -0.222
14 | HMVKDYIQVTVNKEPVILKGKKDYIFIDIFNYIEFDLTIPKGSLYLLLNGKNAGYHDKLLDGDVIELGW | -1.72
15 | HMENTVVMPNLLGKTMTEAKIELKDLSISITLKGSENSSQYAAGQIISQSVDSGTRVAVGSSVEVTIAGS | 0.0377
16 | HMKILALETSAKAVSAAVSENGRILASGYQDTGLTHSRTLMPIVEHILKNTDLKLSDMDAIAVAVGPG | 0.211
17 | HMVDKTMYDRYAVDDYVRVIDGPLVGTEGRIIELDRETGNVKIEAVFFGRVTTADINFALIEKVD | 0.0531
18 | HMATGIKAVDNVFGWMNLEQVAKTVGLDIPSVLRASGLPEDTPVDISIKKIPGVDDEELKDSLRQYIEKS | 0.0213
19 | HMGEDLTIDQLAAEVDMTVRNIRAHQARGLLPPPTIKGRIGYYGPLHRRRLQQIRAMQEEGLNLAAIAKVV | -0.609
20 | HMSSQGSLEKGYSALLDGRLDDAALAYGAALAANPMERDALLGLAYVAHSKGRREEAQALYRKVLR | 0.0715
21 | HMVSRQINVIPDDLAGLRLDQALAHLFPQHSRSRLKEWLLEDIIIVQGGPKRPKDIVSGGEIVEIKL | -0.0906
22 | HMKAQVKSVLDDIPGIGQTRRKALMRYFKSLEKIREASVEELKEADAMNERAAQSVYAFFHK | -0.471
23 | HMSQVLVRINQDLNIRSGPGAQYDIIAVYRSGAIASVIGTYNNWYKVNFELDSKSYTGWINGTFTSR | -1.93
24 | HMYTVQPHESLWSIAASQLGDGHRFTEIVDLNQELLGGKANFIKPGWVLQIP | -0.299
25 | HMGLDERNLKLFAASLLEQAGKKITESTMTYLLDKTGSDMENIQNEVEKIIGYTMNHTVVTTEDIDAV | -0.271
26 | HMDFNNQLKRIRESNGLTQEQLAKILNVSRQSISSWEVGRNFPDLEMIVIISKEFNISLDQLIMG | -2.82

Row | Sequence | soluble fraction (log2)
27 | HMVSEDELLARIALLPYPQAKILLEERLSHDPANAKVRQLYLELAKKSGDHTEVTRHNSLLY | -0.104
28 | HMYDAEAINKFFDIENWDFGETFYFQELSAYIMNQLSPKLVTILIVPRQTTQAFGSLFEIKSEPDEIFAS | -0.107
29 | HMAMLSKREAEILKLTAKGHSSTDIAQRLTISVNTVEFHRRRIMQKLNAANVAEAVGKAAELGLFF | -0.438
30 | HMSFGYFQLRAKDPQKLKSVLEKIPQIQSIKEEKGDLIGYLNADMEAEELSQKLAAAKIFVTHMAKKK | -0.0166
31 | HMIDPHGSLTLDLRPRDARVEIIDSNKTYKPGVRLPMGEYAIAVSRRGYISETKRINIEYGDNRERVAL | 0.0829
32 | HMIDIDTILKKYKPGRRDELIPLMQEIQEVYGHLSEEAVVKIGTYVGLSTTKIYGLATFYDQFRF | -1.24
33 | HMSINQIADKGYITRLIDNNANIKDVLYYDASSRILAIEDPKYMFYLKNTDWNQFAKEMGFKLE | -0.657
34 | HMGSQSYVAIVNERFKESDIVELGGSVGSRTGDIITLHFRNSSPNELKNITGIVYLQVANKVTPKL | -0.612
35 | HMIIDPQIRTLWTSQIIDILKSNPKRSIRSILELYPSNKESWVLIILQELIGEEKIIRDLDYLYFNK | -2.22
36 | HMTLFDESGYTARELEIIREVANGLSNKEIADKLFLSEGTVKNYITGILAKENLSHRTALAVYYLTGRK | 0.0583
37 | HMITGREMDVLEALWSSEKPLVASDIPKMKPSLSISSVQLALRNLVKKKLVEVADIVYSGTVLSRSYRP | 0.0545
38 | HMEPAPPPAAPPADPELQKRIDKLVEYIGKNGPEFEAVIRDKQHDNPDYAFVFGGEGHAYYRYLLWLLPRP | 0.00294
39 | HMSVTVMVLRAAGDIQAGTEITDKHLATVEVGEYGLPEGIINDKDSILGKIALTDIAKGDYFFSQKLG | -0.134
40 | HMQPLRQGDFVTSEVVKVQDGTAVLRTAQGTLLSASLTGNLGLLPGDRVETVVVEASPGRFVLRVLDIIR | -0.15
41 | HMVPVSIYAYNKIKTAILNNELMPGEKLVEASLAETLNMSRTPIREALRQLEQEGFVTYYPQKGSIVSH | -0.657
42 | HMTVKKLIINEDNSGRRIDNYLLSIFNSVPRSKIYNIIRKGEVRVNSSRIKPSYRLEEGDQVRIPPNLDYT | -1.04
43 | HMDDFSETLLQYIKEKGGHISLNDKTDAGVIYETFGVSKKTFKKAVGDLYKKRLIVLEDTGIRL | -0.0801
44 | HMNDEQFAIAKNDLLLSLYDGKEVNNSAAEYIIAWESLEKSPSDYISSQLKNTAESIIKISFD | 0.0499
45 | HMRGESFSTLVSILQEMSARKAAQVLNGLSEGLAVEVLRALPSDVAGDILGRMDAAKAAALMEQLST | -0.17
46 | HMFEKIDINFADIHQLKGLPLNSEQINSIIEYRNQNGFIENIYDLKNVNGISIDKVHELKSYIFIIDV | -2.42
47 | HMKKLTAEEIQEAKDILEKIQEIPNFKKIFGDDTIKALENSTKTGVLLPDNIISKIHTLMIRFGIK | 0.237
48 | HMTEPKRIVDHWQPSDDVYDILRMSHIDLDFARSLLPEFIVYWKDSSQTHTSWNSKFLQHAKYHWAKRHQL | -2.08
49 | HMQFETVQDAFNHYRNASLEEIESRAAEIKGIIESDPEADVRALNIEIEGLHQAKQNILEKQKTK | -0.0753
50 | HMGIQQNHMTLHARSVASSANVPAEHFDTLVEKLIESGDIKVWKAREILMNLSRQHEEILDES | 0.0119
51 | HMEDIEEVIVEIDTVLRTHFDRGRTEVLFAEIETAGGRPFMTYLALLFMAHRGSVRLQQDDLFGDLWVKDP | -0.0374
52 | HMGTVRFYNKERGFGFVVSDDGESVFLPAKALPDGVSDLSPGTRVDYGAALGKKGSQ | 0.153

Row | Sequence | soluble fraction (log2)
53 | HMYTVVVGDSPSLIADKTGVPLKELTAMNPNLSDNFLPGKQLL | 0.000825
54 | HMAIQGVRLYERTLETGDPWLDRPLSTLSTGTRLIILVRRGGDVLIPKGDTVLLAGDTLVINDS | -3.24
55 | HMNPDMIAGVLKVPAAAGRLRSALFELGVVDDESYDDDGASRLTVTASQSDLERIVAQAGLVFEDVLVERR | -0.0627
56 | HMDIRLMPGTVLTREYQGIEHRVTVAQDGQYEFEGRRYPSLSMIAREITGTRWSGPLFFGVK | -0.657
57 | HMDITKPKISFEPGEMVRVVDGPFNDFSGVVEEVNYEKSKVRVAVLIFGRSTPVELQFNQIEK | -0.252
58 | HMSLSQLGLTPRQTDVLALLLKGQPNKLIARELGLSVETVKDHVAAVLRALNVSSRTQAVIAVSQMLQ | -0.905
59 | HMEAPWQEIKRQVMDGLDMSREFTDEELRERIALAVRSYSKEKLLSLKVRESYEEQIFNSFR | -0.239
60 | HMNALTEAESKLLERMNKAGIHAEITTKKAAGILQRSENGARTVLNSLVKKGYLTVETNKAPYIYHLH | -0.11
61 | HMPGDIRKAAILLMSLPREQAAQVLARLDPKQVEAVTIEIARLGTVTPDEQEQALKEFSQANPA | 0.0798
62 | HMEDEFNQIASQKNVPSFLGKGKKEVINIAKKNKIKINLSGNGYVKRQIPAPGEVISHLDEVTIFLEPG | 0.396
63 | HMSHFRMLPSITEADAFLKSRSLPAGLEVREQVDAFLAQARQTLALAQEAPWLSKQEVLETLADEFVQTS | -0.496
64 | HMNQGKLIEMLQEMKEIAHSQNNYLTKNEIANYLGDTVLSKEQLQAVYHYLGENHIEVEGYVYIP | 0.035
65 | HMEKVTPEMIAEYNALAKKYNSNPEVVFKKKEIQRLKYIYSLMSEKQKETAEVFPNIPPPPPT | -0.234
66 | HMVNLKQVELREHHPWVGHKIKELDISRHTLIVMIRRGDNAIVPNGDTLIKSGDIVFVFSKR | -1.05
67 | HMNIETHIVPKLLAPIRLQEYGVGIFNNIPTKSALKKALKKQLITVDKTVATTATFIKGGETIELAYQ | -1.47
68 | HMHGSTAVVPQIKNMPYSEASVRLGANGLAIEINDSVYDRDMPPGTVIESWPKAGAVVKQGRQVYVTVTA | -0.221
69 | HMQSANQLIKLSRKRKGLTQQELADQAGVSLRTVQRIEKGTEEISGFSLKQISQILEIPLEQLIM | -0.146
70 | HMIQQFTYAFAKDKGVVVLPGRDVLTLGMRAGADPLVLLEARRALGSSFELEPLDRDTYERTLADVFTADA | -0.695
71 | HMNFTVTDKNAVLYSNDNTKVYESPDINSKLVTTIAKDLPVNVTGITSNGWFRISLEGTYYVPGNGLEQR | 0.141
72 | HMGVIGADIRALRVSRGWTLSDLAEALDRSVGWLSQVERDVSEPALADIRRIAGIFDLPVSFFFSD | -2.86
73 | HMTDVHFIDVPVSEGHPWIGLTVKDLNLPPGTLLVFLNHPGEKSTVPNGDTVLREGDVLVLGATAYAG | -0.0795
74 | HMGVEVPRGDGSTVVRVRAGSSLADFAERIGADPAALITVLFRMGEMATVNQSLDEDTFKLLGAELGYDVQ | -0.691
75 | HMGPGDTTIPTTIIGMSLEEARNELSAAGLLVARIIPVDSNSRTGTVLKITPDAGSIIKAGSGVELEIAS | 0.0765
76 | HMEDYYKEDYYTEVLKIPKEYIKGFQYYLIEDAEFVNALNAKNKTMTSFLAKKLASDYIEIIHQEQ | -1.46
